Values belong to the binder of their own block, whether it stands above or below them.
What was measured:
[1] = biological target: T1, Recombinant TGFBI (transforming growth factor-beta-induced protein) (UniProt Q15582 24-683); experiment: ELISA; recombinant Notch-1 (2 g/ml as printed, in PBS) coated on 96-well polystyrene plates at RT overnight; blocked with 1% BSA in PBS; Jagged-1 or TGFBI added at 0 to 2000 ng/ml; biotinylated antibodies, streptavidin-HRP, OD 450 nm; Kd (nM) = ED50 (ng/mL)/molecular weight of binding protein; settings: both partners purified
T1 construct: Transforming growth factor-beta-induced protein (TGFBI, βig-H3); cDNA inserted into the EcoRV and EcoRI sites of pET-29b; also called βig-H3; keratoepithelin; source: E. coli, IPTG-induced, purified (Ni-NTA column, dialyzed)
T1 sequence (looked up): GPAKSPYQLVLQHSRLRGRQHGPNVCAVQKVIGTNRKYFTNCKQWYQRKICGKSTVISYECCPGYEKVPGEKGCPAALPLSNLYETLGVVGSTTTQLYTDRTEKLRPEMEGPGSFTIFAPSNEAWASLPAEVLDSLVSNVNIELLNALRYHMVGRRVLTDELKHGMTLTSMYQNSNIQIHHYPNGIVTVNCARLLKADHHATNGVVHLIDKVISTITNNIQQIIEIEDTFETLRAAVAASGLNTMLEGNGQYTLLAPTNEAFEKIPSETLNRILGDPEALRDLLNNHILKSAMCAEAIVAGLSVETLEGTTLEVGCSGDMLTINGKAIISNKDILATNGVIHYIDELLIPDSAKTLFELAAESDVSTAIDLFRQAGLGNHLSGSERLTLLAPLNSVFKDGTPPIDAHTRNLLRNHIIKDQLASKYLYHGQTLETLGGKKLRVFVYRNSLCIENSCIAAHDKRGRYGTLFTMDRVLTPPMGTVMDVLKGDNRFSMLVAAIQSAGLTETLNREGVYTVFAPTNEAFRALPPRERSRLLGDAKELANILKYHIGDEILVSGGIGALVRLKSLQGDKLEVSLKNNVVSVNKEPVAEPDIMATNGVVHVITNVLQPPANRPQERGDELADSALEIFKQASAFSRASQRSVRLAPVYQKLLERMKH

[2] = biological target: T2, Recombinant Notch-1 protein (UniProt P46531 19-2555); experiment: ELISA
T2 chain: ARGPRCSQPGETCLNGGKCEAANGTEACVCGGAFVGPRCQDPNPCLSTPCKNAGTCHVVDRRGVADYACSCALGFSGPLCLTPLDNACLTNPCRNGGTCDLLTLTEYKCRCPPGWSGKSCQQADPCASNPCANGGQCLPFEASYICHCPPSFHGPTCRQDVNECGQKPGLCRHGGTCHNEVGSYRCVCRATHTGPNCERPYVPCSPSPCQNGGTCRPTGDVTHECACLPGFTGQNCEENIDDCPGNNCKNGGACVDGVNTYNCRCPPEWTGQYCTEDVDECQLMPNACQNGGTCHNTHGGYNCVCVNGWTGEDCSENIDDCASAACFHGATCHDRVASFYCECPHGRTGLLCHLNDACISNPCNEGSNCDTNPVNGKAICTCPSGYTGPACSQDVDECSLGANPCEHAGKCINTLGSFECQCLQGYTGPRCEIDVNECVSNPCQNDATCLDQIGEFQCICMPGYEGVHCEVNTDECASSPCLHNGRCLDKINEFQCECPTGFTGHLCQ

Kd [1]: 3.18 nM
B1: Recombinant Notch-1 protein (receptor)
chain: T2 chain
modifications: Species, supplier and limits not stated. Human assumed (mouse Q01705 is possible). Limits follow the usual commercial recombinant Notch-1 ectodomain fragment (N-terminal EGF repeats including …)

EC50 [2]: 0.452 µg/mL
B2: Recombinant TGFBI (transforming growth factor-beta-induced protein) (natural protein)
chain: T1 sequence (looked up)
modifications: Species, supplier and limits not stated. Human assumed (mouse Q01705 is possible). Limits follow the usual commercial recombinant Notch-1 ectodomain fragment (N-terminal EGF repeats including ligand-binding EGF 11-12), recalled rather than printed; any Fc carrier omitted.
